Source: publication PMC5614552 (Biochemistry and Biophysics Reports, 2016)

Target: human CD34 protein (Fc tag; Sino Biological Incorporation) (Homo sapiens, UniProt P28906)
Assay: SPR

Sequence of human CD34 protein (Fc tag; Sino Biological Incorporation) (P28906 32-290): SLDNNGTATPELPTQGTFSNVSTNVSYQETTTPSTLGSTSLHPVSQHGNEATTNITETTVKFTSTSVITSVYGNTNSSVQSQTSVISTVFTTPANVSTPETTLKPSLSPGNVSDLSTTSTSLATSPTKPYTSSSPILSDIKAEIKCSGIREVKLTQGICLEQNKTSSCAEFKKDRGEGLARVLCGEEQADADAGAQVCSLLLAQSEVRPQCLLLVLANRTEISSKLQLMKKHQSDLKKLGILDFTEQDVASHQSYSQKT

Kd: 14.7 nM | koff: 0.000262 s⁻¹ | kon: 17800 M⁻¹ s⁻¹
B1: Chimeric QBEND/10 (antibody, V domains shown)
VH: QVQLEQSGPELVKPGASVKMSCKASGYTFTSYVIHWVKQKPGQGLEWLGYTNPYNDVTKYNEKFKFKATLTSDKQSTTAYMEFSSLTSEDSAVYYCARYGGLWLYAMDYWGQGTSVTVSS
VL: QLVLTQSSSASFSLGASAKLTCTLSSQHRTFTIEWYQQQPLKPPKYVMELRKDGSHSTGDGIPDRFSGSSSGADRYLSISNIQPEDEAIYICGVGNTIKEQFVYVFGGGTKVTVL
